# Test results taken from patent US20180155431A1 (Hoffmann-La Roche, published 2018).
# T1: human angiopoietin 2 (human, UniProt O15123 19-496, limits assumed)
# T1 construct: The protein was bought (R&D Systems Cat. No. 623-AN) or produced in house; also called ANG-2; ANGPT2
# T1 sequence: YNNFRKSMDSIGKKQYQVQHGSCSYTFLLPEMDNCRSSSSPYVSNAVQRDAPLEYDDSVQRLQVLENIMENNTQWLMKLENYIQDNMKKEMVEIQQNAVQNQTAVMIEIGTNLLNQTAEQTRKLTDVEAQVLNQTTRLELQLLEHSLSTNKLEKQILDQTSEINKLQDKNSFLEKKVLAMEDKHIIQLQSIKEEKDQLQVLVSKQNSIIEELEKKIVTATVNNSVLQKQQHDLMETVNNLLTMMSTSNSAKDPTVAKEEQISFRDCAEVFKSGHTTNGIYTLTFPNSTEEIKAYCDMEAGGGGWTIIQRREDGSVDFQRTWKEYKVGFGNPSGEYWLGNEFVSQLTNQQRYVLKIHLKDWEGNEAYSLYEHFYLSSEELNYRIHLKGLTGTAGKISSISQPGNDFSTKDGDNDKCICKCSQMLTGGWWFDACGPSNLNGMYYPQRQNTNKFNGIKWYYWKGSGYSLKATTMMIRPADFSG
# B1: <ANG-2> LC06 (antibody, V domains shown)
# VH: not shown
# VL: QPGLTQPPSVSVAPGQTARITCGGNNIGSKSVHWYQQKPGQAPVLVVYDDSDRPSGIPERFSGSNSGNTATLTISRVEAGDEADYYCQVWDSSSDHYVFGTGTKVTVLG
# Target: T1, human angiopoietin 2
# Experiment: ANG-2/Tie2 interaction ELISA: antibody dilutions pre-incubated with 0.2 ug/ml human ANG-2, then added to plate-coated human Tie2; bound ANG-2 detected
# Experimental: After washing a mixture of 0.5 μg/ml biotinylated anti-Angiopoietin-1/2 clone (R&D Systems #BAF923, BAM0981 R&D Systems, UK) and 1:3000 diluted streptavidin HRP (Roche Diagnostics GmbH, DE, Cat. No. 11089153001) was added for 1 h. Thereafter the plates were washed 6 times with PBST. Plates were developed with freshly prepared ABTS reagent (Roche Diagnostics GmbH, DE, buffer #204 530 001, tablets #11 112 422 001) for 30 minutes at RT. Absorbance was measured at 405 nm.
binder,measurement,value
B1,IC50,0.1 nM
